Experiment: label from the status in PepcDB records

Sequence | protein production
MFFLSDHDTLISSIEAIGASFAVFEFDPQSVAFELVSCNSRYEDLMGYSSAKALGQPLTTIFPRYIHNPLKEAFIHCKNERIALETEIVLDYKGQERCWRSIVSPIVNSADEKFRIIQTCVEITEKKVLEKQLNLSMKRFEAVVNNAYDGIITIDEQQNVKLFNEAAQSMFGYSEQEIMGQPLTKLLPEKYQAKHHGYVEGFKRSQVDSRPMQTRAAVQGLRKDGSEFAIEVTISKIRIADNVEFTAVIRDISEKNQLLEELILSSRRDPLTELYNRRYFTELLHSEITRSRRFKRGFSLLMLDIDHFKSINDRYGHACGDAALIAFSKAVTNSIREVDTICRWGGEEFLVLLPEIPKVTAMVVAEKIRKNIENLETIYEGDLIKVTVSIGLEYFSGDAIEMSSMINKVDQILYRAKDTGRNKISTEI | failed
MNIEEFTSGLAEKGISLSPRQLEQFELYYDMLVEWNEKINLTSITEKKEVYLKHFYDSITAAFYVDFNQVNTICDVGAGAGFPSLPIKICFPHLHVTIVDSLNKRITFLEKLSEALQLENTTFCHDRAETFGQRKDVRESYDIVTARAVARLSVLSELCLPLVKKNGLFVALKAASAEEELNAGKKAITTLGGELENIHSFKLPIEESDRNIMVIRKIKNTPKKYPRKPGTPNKSPIEG | not failed
MEKNVTPMIRQYLDIKKKYKDAVLFFRVGSFYEMFFDDAIEVSKLLNLTLTKRENVPMCGVPYHTSKEYIRKLILFDKKVAICEQASNSTSGGPLEREVVEVITPGVIIDEDFLNDDINNYLVAISDYKDYYSFSYIDLSTSSLGIMFYENGFFEKLKRDLEKYSPKEIIVSENFYYEYSEKLNLSRFLINRVPTWHLDKDIAIKTIKEHFNILGLSSLGFDEEKPYYISIFLIINHIKNNLKNLLSNIDKIDINNDSSYMFLDDVTQVNLELVKNNNDFSSQYSLYSVLNDCKTAMGKRLLREFILNPILNISEINTRLDHVEFFCKNISLTVTLRETFINIWDIERIISRIQMKRYIKKDFLFIEKALSVFFTVKKLFDKHNFDYWNFDKFEEDSISKVYFLINSAISSAPDELIKRGYDLKLDNLKDLKINANKYIDQYLESERLLSKINNLKIRKTNNRGLFFEVTKSNYAQVPPHFMESQALNSSKRYKTEKLISLEVDINNAEDNVVAFEQEIFDEIASNVVMHNKVLKKVAEFFAYIDLVVNFGYLAKKNEYKRPVLTSGKEILLEKSRHPVVEHYTKNTEIFTENFVRINKEKYFCLITGPNMAGKSTYLRQVALITLMAHIGSFVPASKALIGITDKIFCRIGASDNIAKGESTFLVEMNETANILRNATEKSLIIMDEVGRGTSTNDGLAIAYSIIEYILEYIKARSLFATHFHELSSINHQAFINLSMKIEKQGNDLVFLREVEEKPSLNSYGIYVARIAGLPLRVIDRANVILESLVGREGNSCLEFLPHVSSDGNDKEILKNDTDIHIKLNEYLELKNFISNIDINNITPFQSIELLNQIVLKVISQSS | failed
MKIFLDSAITTDIQDRLATEIIDGVTTNPTLIKKSNEDPDVVYKELYDMRVKDISIEVRGDTAQELAANGILYGRKYGEVATIKLPCTVEGIKACKKLSILGHKTNMTLVFSVSQAILCAKAGATYVSPFVGRLDQIGEDGIQLIRDISRVYCVSGVKTQILAASIRSPKQAEDAYLAGADICTLPVKVFDQMFKHTLTDDGLKQFAIDFGINF | failed
MIDDMAVPLTFTDAAANKVKSLISEEENTDLKLRVYITGGGCSGFQYGFTFDEKVNDGDLTIEKSGVQLVIDPMSLQYLIGGTVDYTEGLEGSRFTVNNPNATSTCGCGSSFSI | not failed
MKTDFSLTQLADPDIAEADKILRACVHCGFCTATCPTYVLLGDELDSPRGRIYLIKEMLESDKPPTADVVKHIDRCLSCLACMTTCPSGVNYMHLVDQARVRIEKQYQRPFWDRVVREALSWMMPHPGMFRLGMWAARIVRPVAALLPGSHNLTHPTLLSRIKAMLALAPKHLPEPGPDSGTTFPAVGPKRGRVALLHGCAQQVLAPRINRAAINLLTRHGIEVVLAADEACCGALIHHLGRDTRTLEYARTNIKAWLAEIERGGLDAILVTTSGCGTVIKDYGYMLREDPEYAAAAAKVSALAKDISEYVSGLELSLPRPHDDVVVAYHSACSLQHGQKITQIPKELLSKTGFVVKDIPESHLCCGSAGTYNILQPDIATRLRDRKVANIASVKPDMIAAGNIGCMVQIASGTEVPVVHTIELLDWATGGPRPAPH | failed
MIRKLNKKDQEILKTLGSIWLNSNIATHNFINEEYWVNNYDNVIESFKTAEIIVYEKNTEIIGFCGLIDNYIAGMFIKKSSRNQ | failed
MLFPLILQRPMLSTPTLPRKTFAFLLGGVLLVGLVACGSSTPMAPASSASSALESAAADSLLRQVKTQIREATDEGSLDSLKQARAWAKQATGGDRAALAHYYAALADYRMSNRLPEEDEARRGRVIEDAIGHLKRATEINGTMADAWALLSGYYGQMMGMNPMQGMSLGPKANEAMKRAKEHGPNNPRVWIIDGTSDFYTPGMFGGDKEKALTKFEKAARLAEQGSPDDPLMPGWGHAEAHAWVGVAHMEAERYDPARTAFEAALDLNPDYGWVRSVLLPRLEQQAG | failed
MLQHRCPVRRILVHYIAHWSRLRSILPTFAAIVRRPFRVCKTMNQPSSKPTPAVTFRLSKAELVLVFITMLWGGTFLLVHNVMTVSGPMFFVGLRFAAAALFVGVVSARALPGLTFTELKAGMLIGVSIMLGYGLQTMGLQTISSSQSAFITALYVPFVPLLQWLVLGRRPGLMPSMGICLAFIGLMLLAGPEGGSLRFSEGELVTLISAVAIAGEIILISRYAGQVDVRRVTVVQLATASLLAFLMIVPTQERIPDFSWLLLASAVGLGAMSAVIQVAMNWAQKSVSPTRATLIYAGEPVWAGIVGRLAGERLPGVALLGGLLIVVAVVVSELKVRRPRETVETRDVQNPGERQAGL | failed
SLREMLGCCKVYISEARNKTALEAIERALKPFPPAAIVNKFEDAAYGRVGYTVVSSLANGSSSSLKNAVFAMVKTALDTINLELHCGSHPRLGVVDHICFHPLSQTSIEQVSSVANSLAMDIGSILRVPTYLYGAAEKEQCTLDSIRRKLGYFKANREGHEWAGGFDLEMVPLKPDAGPQEVSKAKGVVAVGACGWVSNYNVPVMSNDLKAVRRIARKTSERGGGLASVQTMALVHGEGVIEVACNLLNPSQVGGDEVQGLIERLGREEGLLVGKGYYTDYTPDQIVERYMDLLNNS | failed
MAELENPSVMSKLIAFLSSLLERVAESNDLTRRVATQSQRVSVFHGLSRPTITIQSYLERIFKYANCSPSCFVVAYVYLDRFTHRQPSLPINSFNVHRLLITSVMVAAKFLDDLYYNNAYYAKVGGISTKEMNFLELDFLFGLGFELNVTPNTFNAYFSYLQKEMTLLQPLSLVVVPSSRSLITFNDDEASHQKQQQQQLAV | failed
MTTYTSIANVIKERRSVRTFTDKAVEKDLLIELLNDATWAPNHKHREPWNCKLYIGEGRKKLVDAVLNSFTEEERAKRGKILSDRFLSTPAQIVVYMNEDPRQIQRDEDYAATCAFMQNFQLLAWERGLGCVWKSGGLNYNPLFIEGIGLTRGQRIVGILHIGYFDKAPEGKARTPITEKMEIIEG | not failed
MRNLTFLTRCKPLAASVLALMLLGGAAKSFANNDLPDLGTAAVNTFSLEKEMIYGDAYMRVIRSSAPMLNDPVLSQYLTELGNKLVAHATGVKTPFYFFLLQNDEINAFAFFGGHVAVHTGLFLNADNESELASVLGHEITHVTQRHLARSLEAQQKTGPATVAGLLGAILLTIAVPQAGMAALATTQAMATQSKINYTRLHEKEADRIGMQILVDAGFDPNASAEFFGKLASRYRFTTTPPQMLLTHPLPESRISEARDRAQQYPHRYVPDNLNFQLAKARIQVRFSSFSDDAVLSMFEKQLNKQTYGFKEAALYGKALALFRLKKFDESEKIVDELLKIDDNNLFYIDTKTDLLNERKDYAQAIKLLEAQRNLKPTSQVINANLANIYIEAGEPAKAIPLLEDMIFLDKQNQLPYQLLNLAYKKLGNPGMEYFSNAELMALGANYKGAIDQLNFAYRASEGNQLQLARIEARIRQFKQADREMDALKLEHHHHHH | failed
MRRVVIRTEALSCPLDGDEDSNELRLRPLVPDAQEWKYPKSKLFPRHAAWSCHSGGGGGGGGGRVFTNKVNAVEEFNLGGLKDSESDSDSE | failed
DVTERRRAREALQESEARMKGIASNVPGMVFRLERPRAGAFSDFAYISEGSEALVGYSARELIESGRGIRGLVHPDDRERYWSSQMAALDENRDWHWQGRILTRQGELRWADIKASARCFEDGRAVWDGVVWD | failed
MEYDYLVIAGYFALMVAISLLFKKMASNSTSDYFRGGGKMLWWMVGATAFMTQFSAWTFTGAAGKAFNDGFAVLAVFVGNMVAYVFAYFYFARRFRQMRVDTPTEGVKRRFGNTNEQFFTWVIIPLSVINAGVWLNGLGVFASAVFNADIVTTIWVTGLAVLAISLLSGAWGVVASDFIQTLVVAVISIACAAVALYVVGGPGEIVENFPGGFIMGPDMNYPLLLVCTFIFFVVKQLQSINNMQESYRFLNAKDSKNASKAALMALVMMLFGAVIWFIPPWASAILYPDAATQYSSLGAKASDAVYLVFARETMPLGTVGLLMAGLFAATMSSMDSALNRNSGIFVRSFYSNIVRKGQASDKELLRAGQIACLVNGILVIMMAQFFNSLKHLSLFDLMMQVATLLQSPILVPLFLGIIIRRTPKWAPWATVVVGMFVSWSVVKIFTPEFVGSWFGMDELTRREAGEMRTMITIAAHLVFTAGFFCLSTLFYKEETDTHKETTAEFFKDVDTECVAEEGQDIVDRMQRAKLGTLVIYMAAGLTLMVLIPNPLWGRLLFLACAASVFAVGYGLKKSAKLDTQLSKVAATTTQ | failed
SRFYEQHADCLAEQYTSLKFEDVHASWRAFWPQARDRVLDVGAGSGRDAKWMAEHGCEVIAIEPAQALLRFGKSYCGDSVTWLEDGLPKLEKTINLGFRFDLILVSAVWMHLAPTHRERAFRKLANLLAPNGRLVISLRHGDFSDGRKAYPVSVEELEKFAKNRALMVRNVS | failed
MVTKLALLGAGRIGKVHAKAITTDSRAKLVAVVDAMAGAAEAIAREAQCKVSTIDEVLADKTIDAVIICTPTNTHADLIERFARAGKAIFCEKPVDLDVARAEACAKVVEETGAKVMLGFNRRFDPHFQAVHKAIEDGRIGKVEMVTITSRDPGPPPAEYIKVSGGIFRDMTIHDFDMARFLLGEEVESVFATGSVLVNPEIGALGDFDSASIILTTKSGRQAIISNSRRATYGYDQRIEVHGSEGSAAAENQRPVSIEIANADGYTRPPLHDFFMTRYTTAYAAEIAAFIDSIENNVSPSPSIKDGLIALKLADAALKSATSKTVVTIG | failed
SKQPTSAENSVAKKEDKVPVKKQKTRTVFSSTQLCVLNDRFQRQKYLSLQQMQELSNILNLSYKQVKTWFQNQRMKSKRWQKNN | not failed
MGHHHHHHSHMNSDSECPLSHDGYCLHDGVCMYIEALDKYACNCVVGYIGERCQYRDLKWWELR | failed
MTVRSRFFTEAEGKAVGVENAAAKGDVLLVCEHASATIPQKYGTLGLSADVLSSHAAWDPGALAVARLLSEKFHATLVYQRFSRLVYDCNRPPESPSAMPVKSEIYDIPGNFDLDEAERFARTSALYVPFHDRVSEIIAERQAAGRKVVVVTIHSFTPVYHGRFREVEIGILHDNDSRLADAMLAGAEGASLTVRRNDPYGPEDGVTHTLRLHALPDGLLNVMIEIRNDLIANEGEQAAIAGFLHELMGKALSSIEE | not failed

— a protein production outcome set (Wang et al. 2014)
